In assay [1] the target is Crataeva tapia bark protein (CrataBL) (Crataeva tapia) (UniProt U3KRG0). The assay is described as follows: SEC; Superdex 75 equilibrated in 0.15 M NaCl; at the concentration used in the crystallization trials. For orientation: Size exclusion chromatography separates by hydrodynamic size, large species first.
Another assay has as its target bovine trypsin (bovine). Briefly: enzyme inhibition assay; chromogenic or fluorogenic substrates in 96-well plates at 37°C; enzyme pre-incubated with CrataBL for 10 min; apparent Ki (Kiapp) by fit to the equation for slow-tight binding; buffer specific for each enzyme (trypsin 40 nM in 0.1 M Tris-HCl pH 8.0 with CaCl2; Factor Xa 21 nM in 0.02 M Tris-HCl pH 7.4, 0.14 M NaCl, 5.0 mM CaCl2, 0.1% BSA).

The target of the next assay is human Factor Xa (human). The description is as above.

The term stoichiometry N denotes a count of units in the complex or per binding partner. Regarding “Crataeva tapia bark protein (CrataBL) (from UniProt U3KRG0 1-165) (natural protein)”, the stoichiometry N in assay [1] came out at 2. Also, the Ki in the assay with bovine trypsin (bovine) amounted to 43 µM; with human Factor Xa (human), 8.6 µM.

The values are drawn from article PMC3688800.
